The values that follow come from US20250295802A1, “HER3 ANTIBODY-DRUG CONJUGATE AND USE THEREOF” (DUALITY BIOLOGICS (SUZHOU) CO., LTD., priority 2022, published 2025).

For test [1], the target named is T1, HER3 (Homo sapiens, UniProt P21860).
T1 construct: human Fc (huFc)
As to the kind of experiment: ELISA binding affinity after incubation at 40° C. (heat stress). The following applies: day 0. The method, then:
ELISA assay: human HER2-ex-huFc, human HER3-huFc, and human EGFR-his were diluted to 2 μg/mL and 50 μL/well in a 96-well plate and incubated at 4° C. overnight. The plate was washed with 0.5×PBST, then incubated with 100 μL of a blocking buffer (PBS+3% BSA) at 37° C. for 2 h, and washed with 0.5×PBST. The 3F8 antibody was diluted with the blocking buffer in a 1:3 serial gradient, added at 50 μL/well, incubated at 37° C. for 40-50 min, and then washed with 0.5×PBST. Goat anti-mouse IgG-HRP (Southern Biotech, 1030-05) was diluted at 1:20000 with the blocking buffer, added at 50 μL/well, incubated in the dark for 30 min, and then washed with 0.5×PBST. […]
Antibody stability test: the purified antibody at 5 mg/mL was stored at 4° C. as regular practice, incubated at 40° C. for 7 days and 14 days for heat stability evaluation, transferred to a glycine solution at pH 3.5 for regeneration, and stored for 2, 4 and 6 h for acid stability evaluation, or subjected to repeated freeze-thaw treatments for 4 or 6 cycles for freeze-thaw stability evaluation. Aggregation was measured by SEC-HPLC, and binding affinity was determined by ELISA. […]
EC50 assay of the three clones of hu3F8 incubated at 40° C. for different times. The three humanized 3F8 antibody clones were incubated in normal saline at 40° C. for 7 or 14 days, and the binding affinities after heat stress test were determined by ELISA. […]

Test [2] deals with T2, His-HER3 (Homo sapiens, UniProt P21860).
T2 construct: His
As to the kind of experiment: Binding kinetics by Biacore (SPR). Particulars: antibody as ligand, analyte His-HER3, Biacore T200. The method, then: Affinity assay by surface plasmon resonance (SPR): antibody kinetics and affinity were determined using Biacore T200. Briefly, the recombinant human HER3 antibody was immobilized on a protein A chip (GE, Cat. 29-1275-5). The antigen concentration, from 50 nM to a final concentration of 0.78125 nM, was generated by 2-fold serial dilution, and affinity and kinetics were determined through the chip.
The binding affinity of humanized 3F8 (hu3F8) and chimeric 3F8. Binding kinetics of 3 humanized 3F8 clones and chimeric 3F8 were determined by Biacore. Three humanized 3F8 clones (clone 1, clone 2 and clone 3) had different heavy chains and one identical light chain. Clone 1, clone 2, and clone 3 corresponded to hu3F8-1, hu3F8-2, and hu3F8-3, respectively.
All data listed in Table 6 were processed using Biacore T200 evaluation software version 3.1.

The target in test [3] is T1, HER3. As to the kind of experiment: ELISA binding affinity after repeated freeze-thaw. The following applies: 0 freeze-thaw cycles. The method, then:
ELISA assay: human HER2-ex-huFc, human HER3-huFc, and human EGFR-his were diluted to 2 μg/mL and 50 μL/well in a 96-well plate and incubated at 4° C. overnight. The plate was washed with 0.5×PBST, then incubated with 100 μL of a blocking buffer (PBS+3% BSA) at 37° C. for 2 h, and washed with 0.5×PBST. The 3F8 antibody was diluted with the blocking buffer in a 1:3 serial gradient, added at 50 μL/well, incubated at 37° C. for 40-50 min, and then washed with 0.5×PBST. Goat anti-mouse IgG-HRP (Southern Biotech, 1030-05) was diluted at 1:20000 with the blocking buffer, added at 50 μL/well, incubated in the dark for 30 min, and then washed with 0.5×PBST. Prior to assay, 50 μL of luminol buffer A+B was added to each well in a 1:1 mix.
Antibody stability test: the purified antibody at 5 mg/mL was stored at 4° C. as regular practice, incubated at 40° C. for 7 days and 14 days for heat stability evaluation, transferred to a glycine solution at pH 3.5 for regeneration, and stored for 2, 4 and 6 h for acid stability evaluation, or subjected to repeated freeze-thaw treatments for 4 or 6 cycles for freeze-thaw stability evaluation. Aggregation was measured by SEC-HPLC, and binding affinity was determined by ELISA.
Three clones of hu3F8 were freeze-thawed for 3 or 5 cycles, and then subjected to ELISA to measure the binding affinities. The chimeric antibody was subjected to parallel assay.

B1: Chimeric: murine-human chimeric 3F8 antibody with human IgG1 and Igκ constant regions (antibody, V domains shown)
VH: DVQLQESGPGLVKPSQSLSLTCSVTGYSITSAYYWNWIRQFPGDKLEWMGYISYDGRNNFNPSLKNRISITRDTSKNQFFLKLNSVTSGDTATYYCARDGDYDYFDYWGQGTTLTVSS
VL: DIQMTQTTSSLSASLGDRVTISCRASQDISNYLNWYQQKPDGTFKLLIYYTSILHSGVPSRFSGSGSGTDYSLTISNLEQEDIATYFCQQGDTLPPTFGAGTKLELK
Turning to B1, the “EC50 after incubation at 40° C.” value in test [1] was 0.04737 µg/mL. In addition, in test [2], the “ka” value was 628000 M⁻¹ s⁻¹ and the “kd” value is 0.000391 s⁻¹. For the same molecule, the “EC50 after freeze-thaw stress” value in test [3] was 0.04706 µg/mL.
